Test results: patent US20180155451A1 (published 2018)
Changes are numbered by the printed parent chain. In names and notes the source's numbering stands. One block for each binder: values may come before it.

Key:
[1] = target: T1, FcγRIIIa F (human, UniProt P08637 17-208); experiment: SPR (Biacore), KD
T1 construct: extracellular domain; also called FcgRIIIa F; FcgRIIIaF; not shown: His tag attached to the C terminus

[2] = target: T2, FcγRIIIa V (human, UniProt P08637 17-208); experiment: SPR (Biacore), KD
T2 construct: extracellular domain; also called FcgRIIIa V; FcgRIIIaV; not shown: His tag attached to the C terminus
T2 sequence (P08637 17-208 F176V limits assumed): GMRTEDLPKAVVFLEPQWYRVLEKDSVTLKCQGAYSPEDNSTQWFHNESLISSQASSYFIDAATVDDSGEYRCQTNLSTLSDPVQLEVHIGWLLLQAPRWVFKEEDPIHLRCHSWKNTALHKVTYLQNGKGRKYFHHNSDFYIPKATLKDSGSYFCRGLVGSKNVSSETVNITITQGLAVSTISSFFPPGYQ

[3] = target: T3, FcγRIa (human, UniProt P12314 16-292); experiment: SPR (Biacore4000), kinetic analysis
T3 construct: extracellular domain; also called FcgRIa; FcgRI; not shown: His tag attached to the C terminus
T3 sequence (P12314 16-292): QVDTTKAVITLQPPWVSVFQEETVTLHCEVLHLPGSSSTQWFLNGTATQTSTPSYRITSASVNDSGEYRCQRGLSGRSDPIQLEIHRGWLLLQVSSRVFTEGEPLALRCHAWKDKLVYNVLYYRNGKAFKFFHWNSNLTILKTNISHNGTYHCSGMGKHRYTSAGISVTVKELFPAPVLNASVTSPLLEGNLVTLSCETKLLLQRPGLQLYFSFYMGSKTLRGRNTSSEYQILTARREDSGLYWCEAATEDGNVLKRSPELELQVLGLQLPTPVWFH
Method: The variants described above were assessed for their binding to FcγR according to the method described in Reference Example 8.
Analysis of interaction between obj ective antibody and the FcγR was carried out using Biacore T100 (GE Healthcare), Biacore T200, Biacore A100, and Biacore 4000. HBS-EP+ (GE Healthcare) was used as the running buffer, and the measurement temperature was set to 25° C. Chips produced by immobilizing the antigen peptide by the amine coupling method to a Series S sensor Chip CM5 (GE Healthcare), chips produced by allowing preliminarily biotinylated antigen peptides to interact with and immobilize onto a Series S Sensor Chip SA (certified) (GE Healthcare), chips produced by immobilizing Protein L (ACTIGEN, BioVision) to Series S Sencor Chip CM5 (GE Healthcare), or chips produced by immobilizing Protein A/G (Thermo Scientific) to Series S Sencor Chip CM5 (GE Healthcare) were used. Antibodies of interest were captured onto these chips, and allowed to interact to each FcγR diluted with running buffer. To regenerate and repeatedly use the chip, the antibodies captured onto the chip were washed off by reacting 10 mM glycine-HCl, pH 1.5.

[4] = target: T4, FcγRIIIa (human, UniProt P08637 17-208); experiment: SPR (Biacore T100); antibody captured on an antigen peptide chip, FcγRIIIa as analyte; 1:1 Langmuir kinetic fit
T4 construct: extracellular domain; The protein is soluble, His-tagged, and was expressed in FreeStyle293 cells; also called FcgRIIIa; CD16A; not shown: His tag attached to the C terminus
Method: (§1) Then, K334G was also assessed in the same manner. GpH7-TA40 (SEQ ID NO: 47) resulting from the introduction of K334G into GpH7-TA7 was constructed, and expressed and prepared in combination with GpH7-B78 according to the method described in Reference Example 1. Furthermore, GpH7-TA50 (SEQ ID NO: 48) resulting from the introduction of K334G into GpH7-B78 was constructed, and expressed and prepared in combination with GpH7-TA7 according to the method described in Reference Example 1. To assess the effect of combinations with K334G, the prepared antibodies were compared for the FcγRIIIa binding according to the method described in Reference Example 2 (Table 18).
(§2) Analysis of interaction between objective antibody and the FcγR was carried out using Biacore T100 (GE Healthcare). HBS-EP+ (GE Healthcare) was used as the running buffer, and the measurement temperature was set to 25° C. Chips produced by immobilizing the antigen peptide by the amine coupling method to a Series S Sencor Chip CM5 (GE Healthcare), or alternatively, chips produced by allowing preliminarily biotinylated antigen peptides to interact with and immobilize onto a Series S Sensor Chip SA (certified) (GE Healthcare) were used. Antibodies of interest were captured onto an antigen peptide-immobilized chip, and allowed to interact to each FcγR diluted with running buffer. To regenerate and repeatedly use the chip, the antibodies captured on the chip were washed off by reacting 10 mM glycine-HCl, pH 1.5.
T4 sequence (P08637 17-208): as the sequence (P08637 17-208 F176V limits assumed) above, with V160F counted along it

[5] = target: T4, FcγRIIIa; experiment: SPR (Biacore); KD of GpH7-TA7/GpH7-B78/GpL16-k0 for FcγRIIIa divided by the KD of this antibody
Method: as §1
as §2, with “To regenerate and repeatedly use the chip, the antibodies captured on the chip were washed off by reacting 10 mM glycine-HCl, pH 1.5.” left out

[6] = target: T3, FcγRIa; experiment: SPR (Biacore), relative binding
From the text: The constructed expression vectors were each combined with GpH7-A5 and GpL16-k0 to express heterodimerized antibodies, or they were combined with GpL16-k0 alone but not with other H chains to express homodimerized antibodies. These antibodies were expressed and purified according to the method described in Reference Example 1. The resulting purified antibodies are the following: the heterodimerized antibodies GpH7-A5/GpH7-B12/GpL16-k0, GpH7-A5/GpH7-B13/GpL16-k0, GpH7-A5/GpH7-B14/GpL16-k0, and GpH7-A5/GpH7-B15/GpL16-k0; and homodimerized antibodies GpH7-B12/GpL16-k0, GpH7-B13/GpL16-k0, GpH7-B14/GpL16-k0, and GpH7-B15/GpL16-k0. The prepared antibodies were used to assess the binding activity to each FcγR by the method described in Reference Example 2.
as §2

[7] = target: T5, FcγRIIIa (human, UniProt P08637 17-208); experiment: SPR (Biacore), KD
T5 construct: extracellular domain; not shown: His tag attached to the C terminus
T5 sequence (P08637 17-208): as the sequence (P08637 17-208 F176V limits assumed) above, with V160F counted along it

T1 sequence (P08637 17-208): as the sequence (P08637 17-208 F176V limits assumed) above, with V160F counted along it

Kd [4]: 7.5 nM
KD ratio [5]: 0.5
B3: GpH7-TA40/GpH7-B78/GpL16-k0 (antibody, human IgG1, kappa)
heavy 1: QVQLVQSGAEVKKPGASVTVSCKASGYTFTDYEMHWIRQPPGEGLEWIGAIDPKTGDTAYSESFQDRVTLTADKSTSTAYMELSSLTSEDTAVYYCTRFYSYTYWGQGTLVTVSSASTKGPSVFPLAPSSKSTSGGTAALGCLVKDYFPEPVTVSWNSGALTSGVHTFPAVLQSSGLYSLSSVVTVPSSSLGTQTYICNVNHKPSNTKVDKKVEPKSCDKTHTCPPCPAPEYLWGPSVFLFPPKPKDTLMISRTPEVTCVVVDVSHEDPEVKFNWYVDGVEVHNAKTKPREEQYNATYRVVSVLTVLHQDWLNGKEYKCKVSNKALPAPIEGTISKAKGQPREPQVYTLPPSRKELTKNQVSLTCLVKGFYPSDIAVEWESNGQPENNYKTTPPVLDSDGSFFLYSKLTVDKSRWQQGNVFSCSVMHEALHNRYTQKSLSLSP
heavy 2: B3 heavy 1 with Y232L, W234G, S237D, A296S, A328L, I330E, G332K, K354D, R433H, K437E
light: DIVMTQSPLSLPVTPGEPASISCQASESLVHSNRNTYLHWYLQKPGQSPQLLIYKVSNRFSGVPDRFSGSGSGTDFTLKISRVEAEDVGVYYCSQNTHVPPTFGQGTKVEIERTVAAPSVFIFPPSDEQLKSGTASVVCLLNNFYPREAKVQWKVDNALQSGNSQESVTEQDSKDSTYSLSSTLTLSKADYEKHKVYACEVTHQGLSSPVTKSFNRGEC
notes: Heterodimerized anti-glypican-3 IgG1 antibody; K334G is in the same H chain as L234Y/G236W/S298A; also called TA40/B78

fold enhancement of binding against GpH7-A5/GpH7-B78/GpL16-k0 [7]: ≥ 10 fold
B6: GpH7-TA7/GpH7-B78/GpL16-k0 (antibody, human IgG1, kappa)
heavy 1: B3 heavy 1 with G332K
heavy 2: B3 heavy 1 with Y232L, W234G, S237D, A296S, A328L, I330E, G332K, K354D, R433H, K437E
light: B3 light
notes: L234Y/G236W/S298A in one H chain, S239D/A330L/I332E in the other

binding activity relative to GpH7-A5/GpH7-B3/GpL16-k0 [6]: ≤ 0.2 fraction of GpH7-A5/GpH7-B3/GpL16-k0
B7: GpH7-B15/GpL16-k0 (antibody, human IgG1, kappa)
heavy: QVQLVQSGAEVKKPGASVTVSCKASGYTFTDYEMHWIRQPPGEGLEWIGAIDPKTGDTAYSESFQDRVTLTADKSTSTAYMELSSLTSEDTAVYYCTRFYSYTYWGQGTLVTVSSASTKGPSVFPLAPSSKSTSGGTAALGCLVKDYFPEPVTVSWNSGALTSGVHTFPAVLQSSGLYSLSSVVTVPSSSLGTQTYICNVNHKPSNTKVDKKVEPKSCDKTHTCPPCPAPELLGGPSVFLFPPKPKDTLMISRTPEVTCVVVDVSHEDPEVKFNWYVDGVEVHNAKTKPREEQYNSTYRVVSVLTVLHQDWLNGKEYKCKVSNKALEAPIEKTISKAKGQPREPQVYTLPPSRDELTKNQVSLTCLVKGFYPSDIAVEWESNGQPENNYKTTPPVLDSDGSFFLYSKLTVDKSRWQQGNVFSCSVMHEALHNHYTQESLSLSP
light: B3 light
notes: P329E in both H chains

Second part, the binder before the results:

B1: H240-Kn192/H240-Hl204/L73-k0 (antibody, human IgG1, kappa)
heavy 1: QDQLVQSGAEVKKPGASVKVSCKASGFNIKDTYIQWVRQAPGQGLEWMGRIDPLRKQTKYREKFEGRVTITADTSTNTAYMELSSLRSEDTAVYYCVRSGREFDYWGQGTLVTVSSASTKGPSVFPLAPSSKSTSGGTAALGCLVKDYFPEPVTVSWNSGALTSGVHTFPAVLQSSGLYSLSSVVTVPSSSLGTQTYICNVNHKPSNTKVDKKVEPKSCDKTHTCPPCPAPEYNWGPMVFLFPPKPKDTLMISRTPEVTCVVVDVSDEDPEVKFNWYVDGVEVHNAKTKPREKQYNATYRVVSVLTVLHQDWLNGKEYKCKVSNKDLPAPIEKTISKAKGQPREPQVCTLPPSRDELTKNQVSLWCLVKGFYPSDIAVEWESNGQPENNYKTTPPVLDSDGSFFLYSKLTVDKSRWQQGNVFSCSVMHEALHNHYTQKSLSLSP
heavy 2: QDQLVQSGAEVKKPGASVKVSCKASGFNIKDTYIQWVRQAPGQGLEWMGRIDPLRKQTKYREKFEGRVTITADTSTNTAYMELSSLRSEDTAVYYCVRSGREFDYWGQGTLVTVSSASTKGPSVFPLAPSSKSTSGGTAALGCLVKDYFPEPVTVSWNSGALTSGVHTFPAVLQSSGLYSLSSVVTVPSSSLGTQTYICNVNHKPSNTKVDKKVEPKSCDKTHTCPPCPAPELLTGPSVFLFPPKPKDTLMISRTPEVTCVVVDVSHEEPEVKFNWYVDGVEVHNAKTKPREEQYNSTYRVVSVLTVLHQDWLNGKEYKCKVSNDALPKPEEETISKAKGQPREPQVYTLPPSRCELTKNQVSLSCAVKGFYPSDIAVEWESNGQPENNYKTTPPVLDSDGSFFLVSKLTVDKSRWQQGNVFSCSVMHEALHNHYTQKSLSLSP
light: DIQMTQSPSSLSASVGDRVTITCRASQDIHKYIAWYQQKPGQAPRLLIQYTSTLQPGVPSRFSGSGSGTDYTFTISSLQPEDIATYYCLQYEQLRTFGGGTKVEIKRTVAAPSVFIFPPSDEQLKSGTASVVCLLNNFYPREAKVQWKVDNALQSGNSQESVTEQDSKDSTYSLSSTLTLSKADYEKHKVYACEVTHQGLSSPVTKSFNRGEC
notes: Y235N/E294K in H240-Kn120; G236T/I332E in H240-Hl068
fold enhancement of binding against the variant before introduction of I332E and Y235N [1]: 2 fold
fold enhancement of binding against the variant before introduction of I332E and Y235N [2]: 8 fold
koff [3]: < 5e-05 s⁻¹

B2: H240-Kn193/H240-Hl204/L73-k0 (antibody, human IgG1, kappa)
heavy 1: B1 heavy 1 with K293R
heavy 2: B1 heavy 2
light: B1 light
notes: Y235N/E294R in H240-Kn120; G236T/I332E in H240-Hl068
fold enhancement of binding against the variant before introduction of I332E and Y235N [1]: 2 fold
fold enhancement of binding against the variant before introduction of I332E and Y235N [2]: 8 fold
koff [3]: < 5e-05 s⁻¹

B4: GpH7-B14/GpL16-k0 (antibody, human IgG1, kappa)
heavy: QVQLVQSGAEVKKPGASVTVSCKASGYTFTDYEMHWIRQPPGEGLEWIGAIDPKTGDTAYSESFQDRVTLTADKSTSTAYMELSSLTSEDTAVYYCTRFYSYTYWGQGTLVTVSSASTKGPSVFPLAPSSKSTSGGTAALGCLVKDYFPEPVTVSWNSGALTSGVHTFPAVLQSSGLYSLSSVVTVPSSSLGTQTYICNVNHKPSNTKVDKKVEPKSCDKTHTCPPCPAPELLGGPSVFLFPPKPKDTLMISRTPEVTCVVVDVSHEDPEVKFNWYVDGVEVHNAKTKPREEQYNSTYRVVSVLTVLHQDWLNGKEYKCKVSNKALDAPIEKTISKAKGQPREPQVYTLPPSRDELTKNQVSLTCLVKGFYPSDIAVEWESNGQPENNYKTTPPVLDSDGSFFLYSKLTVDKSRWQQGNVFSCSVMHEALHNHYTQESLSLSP
light: B3 light
notes: P329D in both H chains
binding activity relative to GpH7-A5/GpH7-B3/GpL16-k0 [6]: ≤ 0.2 fraction of GpH7-A5/GpH7-B3/GpL16-k0

B5: GpH7-A53/GpH7-B78/GpL16-k0 (antibody, human IgG1, kappa)
heavy 1: B3 heavy 1 with Y232L, W234G, S237D, A296S, G332K
heavy 2: B3 heavy 1 with Y232L, W234G, S237D, A296S, A328L, I330E, G332K, K354D, R433H, K437E
light: B3 light
notes: S239D in one H chain, S239D/A330L/I332E in the other
fold decrease of binding activity against GpH7-A57/GpH7-B78/GpL16-k0 [7]: 1.8 fold
